Experimental data reported in patent US5726154A, “Stabilization and oral delivery of calcitonin” (University of Utah Research Foundation, priority 1996, dated 1998).

Assays:
[1] = Reversed-phase HPLC analysis of unaggregated hCT in formulations; assay type: physicochemical; conditions: 0.01% acetic acid containing 1.0% SDS; 8 months of storage at ambient temperature
Method: Samples (1-2 ml) containing 0.2-10 mg/ml of hCT in aqueous formulations were prepared and then maintained in 4 ml borosilicate vials at ambient temperature or at 4° C. The samples were checked periodically for the presence of a precipitate, a gel, or turbidity, which are indicative of fibrillation. In cases of formulations in which the hCT was very unstable, changes in turbidity could be followed over time by spectrophotometry at 340 nm. T. Arvinte et al., The structure and mechanism of formation of human calcitonin fibrils, 268 J. Biol. Chem. 6415-22 (1993), hereby incorporated by reference. In some cases, the concentration of unaggregated hCT was determined using reversed-phase HPLC (Waters modular system with Waters model 745 integrator, Bedford, Mass.) on a Vydac C4 column (4.6 mm×25 cm) equilibrated at a flow rate of 1 ml/min with 0.1% (v/v) trifluoroacetic acid containing 30% (v/v) acetonitrile. Five minutes after injection of a 100 μl sample, a linear gradient of 0.67% acetonitrile/min was applied. Absorbance (at 220 nm) of the eluent was recorded and processed to quantify the amount of hCT injected.
HPLC analysis of hCT in 0.01% acetic acid or in 0.01% acetic acid containing 1.0% SDS was performed to determine the state and concentration of unaggregated hCT in such formulations. […]

[2] = Stability of hCT upon storage in liquid formulations (precipitate, gel or turbidity indicative of fibrillation); assay type: physicochemical; conditions: bile salts (0.5-1.0%: taurocholate, deoxycholate, glycocholate), neutral or acidic pH
Method: As used herein, "stable," "stabilizing," and similar terms refer to inhibiting the precipitation, fibrillation, or gelation of human calcitonin molecules upon storage in a liquid medium at a temperature of about 4°-25° C. Human calcitonin is considered "stable" or "stabilized" in a selected liquid medium when no precipitation, fibrillation, or gellation is detected upon storage at a temperature of about 4°-25° C. for a period of at least about 6 months.
Since hCT is highly unstable in aqueous solutions of neutral or basic pH, acidic formulations were investigated to determine whether increased stability could be obtained. […]
Samples (1-2 ml) containing 0.2-10 mg/ml of hCT in aqueous formulations were prepared and then maintained in 4 ml borosilicate vials at ambient temperature or at 4° C. […] In some cases, the concentration of unaggregated hCT was determined using reversed-phase HPLC (Waters modular system with Waters model 745 integrator, Bedford, Mass.) on a Vydac C4 column (4.6 mm×25 cm) equilibrated at a flow rate of 1 ml/min with 0.1% (v/v) trifluoroacetic acid containing 30% (v/v) acetonitrile. […] Absorbance (at 220 nm) of the eluent was recorded and processed to quantify the amount of hCT injected. […]

[3] = 5 mg/ml hCT in 0.0001%-1.0% acetic acid; could not be duplicated by the applicant; cited from earlier work
[4] = in water at room temperature; cited from earlier work

With Human calcitonin [hCT] as the molecule, how does the “HPLC profiles and UV spectra after storage” value [1] read?
Its value is “not altered”.

What about the “Time to gel formation” value [2] of the same molecule?
Its value is at most 1 h.

And the “Period of stable formulation reported by EP 490549” value [3]?
Its value is 8 months.

With `CCCCCCCCCCCCOS(=O)(=O)[O-].[Na+]` [SDS, sodium dodecyl sulfate] as the molecule, how does the “Critical micelle concentration (CMC)” value [4] read?
Its value is 0.24%.
